Experiment: soluble fraction after stress (log2 fold change); higher = more stays soluble; pooled small domains, quantitative proteomics
Settings: stress: pH 4
Method in brief: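 How much of each domain stays soluble after acid stress, expressed as a fold change, is used to gauge aggregation propensity. Pooled custom libraries of small domains underwent pH 4 stress before high-throughput quantitative proteomics. A higher log2 value means more of the domain stayed soluble.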

| Sequence | soluble fraction (log2) |
| --- | --- |
| HMQEERLTFDTLLGISGIGPRLALAVLSRFTPGSLAAAVDAGDTKAFSAVPGVGNRTASRIILELKGKL | -0.238 |
| HMQEGPGLVPDFRGQTMREVLRGGQSLGVRVAVDGTGLAVAQTPEPGSPLNKVSQVTVSFRPP | 0.22 |
| HMQEINLIGVTGNDLERSALVKLLDGEIIKLSVGDNLNGGRVVDISAVTLTYLKSGQSITLKLPK | 0.116 |
| HMQELGVISEGKYNIELNMVSWNDREPKYDIRSWAPDHSRMGKGISLTEEEMERLVELWNTRNE | -0.802 |
| HMQELKWERNYKLVQDYIKQYGVLPSKNTKYANVSIGRWLTNQHELVKEDNLAPERFEKIKELDT | 0.303 |
| HMQENDLGAVEKIVDDVLHDPKNAQAVADFKAGSEKVLGFLTGQVMKASRGKANPSVVQEVLRQKLKN | -0.0461 |
| HMQENVIIYPNPTKSVIYLSEKVEFILYNILGEIIFIGDNNKIDLNSFDNGVYIFESGNVRTQIIK | 0.204 |
| HMQEQIVQGIVKYFDAEKQFGFIAGDDGVDRFFNAKSIQGNAVKTGDRVRFLAISHIRGPRALKISA | -0.566 |
| HMQEQSSYVGQFGTAATTLRPSGTVELEDGTRIDVVTVGEFIEKGEPVQVVRKDGTWLVVEKRRSK | 0.122 |
| HMQERKYTVSFNTNGGSTINDQKITSGNVIISPGAPKRSGYTFVGWYYHGQPFDLNTKINQDYVLVAKWIK | 0.207 |
| HMQETILFGQQKAINNLSSDTGLSENDLDSYLKKRYKKPLYQLTQSEGADIINGFQDGSLSKNSILDYIKP | 0.22 |
| HMQEVKVRLKPDYLGEVLIKVISDKGELKAELFVSNSQVRSLLRAYAVEFQNQIRDQGYNFSEINVYR | -0.518 |
| HMQFAEIPNFSEMALQILRLQADGLSITKIAEALHMNPRTVKYHAQENYRKLQASNKSEALLAARNLNL | -0.418 |
| HMQFEIGDTVRVHVNIREGERERVQMFEGTVIAKRGSGVSETFTVRRVSYGVGVERVFPVNSPNV | 0.22 |
| HMQFETVQDAFNHYRNASLEEIESRAAEIKGIIESDPEADVRALNIEIEGLHQAKQNILEKQKTK | -0.064 |
| HMQFLGKVTVTHARQANLRAQPSMDAAIVGKVNPGEVYNVVSIPKTSWYEIQLQNGKTVFIAAGMVSFRM | 0.209 |
| HMQFSAVVLDMETRRQVAGVAVYINPKGVVKTDMRGRFVIDGAFNSVTLVRQGYESLTLERSEMTDSIWM | -1.07 |
| HMQGEASDAQLKAIFAIARKLGITDDFEVHRKASRLAGVPEPEVLPSLKSLTYAQASAVIKALQEELE | -0.0238 |
| HMQGENDVTIDPKKLTIGDLAKEISKIEDSEELNNILVAEKEGKGRKGAINAITERIENVSGGTG | 0.22 |
| HMQGLIGEQKAIQIALSRVPGAKPEHVRELKLDYDDGMQLYEGEIFYNFREYEFEINAVTGEVVGWEI | -0.839 |
| HMQHRSRALHLQEELVRRYYDQAIAPFMIFWEMKANVTLDQLKELRAVVSPSLNEHPYTKQLDEYIRLAE | -0.275 |
| HMQIEQVDYGTFMTMIDDKKIDKVEIKDNQILFIGKDDNKKYKTGIVQDPQLAERLHASGAVFSQDI | -0.158 |
| HMQIIGEQNQKDFIALFGAILRMRNLLLSFDEFKGNELISERDLQDYLGRYQDLRDEWRNKRRER | -0.654 |
| HMQINDSSVVQKAVNDVIDQNSKAVSDYWDGKEGAAKFLMGQVMKLTRGQANPDLANQLILTRLQQERV | 0.182 |
| HMQISDEAALLAIVDRVIADNQGPLANYLGGKQSLLGWFVGQVMRATRGQAIPAVVNRLVGERLAAQREE | -0.278 |
| HMQISDESQLREVVSKILEENEQSVIDYKNGKTRAMGFIIGQVMKATRGKANPQLVNEIVKEMLDE | -0.137 |
| HMQISDTASIQEIAKEIIKSNPKAVEDYKKGKENALQFLVGQLMTKTKGTVHPGAARTILGDILK | -0.205 |
| HMQISDTSELEAVVQDILKANMDVVAKIKAGKTNSANFLMGQVMKLTKGRAKPDTVLQLILDAVKQ | -0.374 |
